This is an account of results in paper PMC6054644.

For assay [1], the target named is F-actin from rabbit skeletal muscle acetone powder (rabbit) (UniProt P68135).
The target in assay [2] is rhodamine phalloidin F-actin (G-actin from Cytoskeleton, AKL99) (UniProt P68135). Kind of assay: ultrafast force-clamp spectroscopy (optical tweezers); single biotinylated myosin-5B on a streptavidin bead pedestal, single actin filament suspended between two trapped alpha-actinin beads; 25 mM MOPS pH 7.2, 25 mM KCl, 4 mM MgCl2, 1 mM EGTA, 2 uM CaM, 100 uM ATP; assistive and resistive forces 0.5-3 pN; no added Ca2+.

For “myosin-5B heavy meromyosin with bound calmodulin (Flag-tagged) (from UniProt P21271 1-1095; P0DP29 1-149) (complex)”, the actin-activated steady-state ATPase activity (NADH-coupled assay), Kapp for F-actin at 2000 µM ATP in assay [1] was determined as 1.34 µM.
Take “biotinylated Avi-tag myosin-5B heavy meromyosin with bound calmodulin (from UniProt P21271 1-1095; P0DP29 1-149) (complex)”: in assay [2], the k0^+ (detachment rate from actin, exponential fit extrapolated to zero force, resistive forces, 100 µM ATP) is 0.64 s⁻¹ and the k0^− (detachment rate from actin, exponential fit extrapolated to zero force, assistive forces, 100 µM ATP) is 2.3 s⁻¹.
